In PMC6628251, “Structural and Functional Impact of Seven Missense Variants of Phenylalanine Hydroxylase” (Genes, 2019):
“And” between values parts separate entries of the source, which are not always exact repeats. Equal values may be shown once.

Key:
[1] = target: the molecule itself; assay: SEC; MBP-PAH expressed in E. coli XL1 blue without GroEL/ES; MBPTrap HP affinity, then Superdex 200 HR 10/30; 200 mM NaCl, 20 mM HEPES, pH 7.0; percent of oligomers, tetramers and dimers, mean of three column purifications
[2] = target: the molecule itself; assay: as above; remark: listed apart in the source
[3] = target: the molecule itself; assay: SEC; MBP-PAH co-expressed with GroEL/ES (pGroELS) in E. coli XL1 blue; MBPTrap HP affinity, then Superdex 200 HR 10/30; 200 mM NaCl, 20 mM HEPES, pH 7.0; percent of oligomers, tetramers and dimers, mean of three column purifications

Row | Protein | stoichiometry N [1] | percent of purified protein as dimers [2] [%] | percent of purified protein as dimers [3] [%] | percent of purified protein as tetramers [3] [%] | percent of purified protein as tetramers [2] [%]
1 | human wild type phenylalanine hydroxylase, fusion with maltose-binding protein (enzyme, UniProt P00439 1-452, looked up, phenylalanine hydroxylase (PAH), human, WT cDNA in the pMAL-MBP-c2 vector; also called WT PAH; PAH-MBP fusion protein) MSTAVLENPGLGRKLSDFGQETSYIEDNCNQNGAISLIFSLKEEVGALAKVLRLFEENDVNLTHIESRPSRLKKDEYEFFTHLDKRSLPALTNIIKILRHDIGATVHELSRDKKKDTVPWFPRTIQELDRFANQILSYGAELDADHPGFKDPVYRARRKQFADIAYNYRHGQPIPRVEYMEEEKKTWGTVFKTLKSLYKTHACYEYNHIFPLLEKYCGFHEDNIPQLEDVSQFLQTCTGFRLRPVAGLLSSRDFLGGLAFRVFHCTQYIRHGSKPMYTPEPDICHELLGHVPLFSDRSFAQFSQEIGLASLGAPDEYIEKLATIYWFTVEFGLCKQGDSIKAYGAGLLSSFGELQYCLSEKPKLLPLELEKTAIQNYTVTEFQPLYYVAESFNDAKEKVRNFAATIPRPFSVRYDPYTQRIEVLDNTQQLKILADSINSEIGILCSALQKIK | 4 and 2 |  |  |  | 
2 | human phenylalanine hydroxylase variant p.Asp229Gly, fusion with maltose-binding protein (enzyme, UniProt P00439 1-452, looked up, phenylalanine hydroxylase (PAH), human, missense variant from Czech PKU/HPA patients, made by site-directed mutagenesis of pMAL-PAH; Same construct as m1 with one substitution; also called c.686A>G) MSTAVLENPGLGRKLSDFGQETSYIEDNCNQNGAISLIFSLKEEVGALAKVLRLFEENDVNLTHIESRPSRLKKDEYEFFTHLDKRSLPALTNIIKILRHDIGATVHELSRDKKKDTVPWFPRTIQELDRFANQILSYGAELDADHPGFKDPVYRARRKQFADIAYNYRHGQPIPRVEYMEEEKKTWGTVFKTLKSLYKTHACYEYNHIFPLLEKYCGFHEDNIPQLEGVSQFLQTCTGFRLRPVAGLLSSRDFLGGLAFRVFHCTQYIRHGSKPMYTPEPDICHELLGHVPLFSDRSFAQFSQEIGLASLGAPDEYIEKLATIYWFTVEFGLCKQGDSIKAYGAGLLSSFGELQYCLSEKPKLLPLELEKTAIQNYTVTEFQPLYYVAESFNDAKEKVRNFAATIPRPFSVRYDPYTQRIEVLDNTQQLKILADSINSEIGILCSALQKIK |  | 19.3 | 10.1 | 10.2 | 
3 | human phenylalanine hydroxylase variant p.Asn167Tyr, fusion with maltose-binding protein (enzyme, UniProt P00439 1-452, looked up, phenylalanine hydroxylase (PAH), human, missense variant from Czech PKU/HPA patients, made by site-directed mutagenesis of pMAL-PAH; Same construct as m1 with one substitution; also called c.499A>T) MSTAVLENPGLGRKLSDFGQETSYIEDNCNQNGAISLIFSLKEEVGALAKVLRLFEENDVNLTHIESRPSRLKKDEYEFFTHLDKRSLPALTNIIKILRHDIGATVHELSRDKKKDTVPWFPRTIQELDRFANQILSYGAELDADHPGFKDPVYRARRKQFADIAYYYRHGQPIPRVEYMEEEKKTWGTVFKTLKSLYKTHACYEYNHIFPLLEKYCGFHEDNIPQLEDVSQFLQTCTGFRLRPVAGLLSSRDFLGGLAFRVFHCTQYIRHGSKPMYTPEPDICHELLGHVPLFSDRSFAQFSQEIGLASLGAPDEYIEKLATIYWFTVEFGLCKQGDSIKAYGAGLLSSFGELQYCLSEKPKLLPLELEKTAIQNYTVTEFQPLYYVAESFNDAKEKVRNFAATIPRPFSVRYDPYTQRIEVLDNTQQLKILADSINSEIGILCSALQKIK |  | 20.2 | 8.5 | 38.8 | 33.2
4 | human phenylalanine hydroxylase variant p.Phe263Ser, fusion with maltose-binding protein (enzyme, UniProt P00439 1-452, looked up, phenylalanine hydroxylase (PAH), human, missense variant from Czech PKU/HPA patients, made by site-directed mutagenesis of pMAL-PAH; Same construct as m1 with one substitution; also called c.788T>C) MSTAVLENPGLGRKLSDFGQETSYIEDNCNQNGAISLIFSLKEEVGALAKVLRLFEENDVNLTHIESRPSRLKKDEYEFFTHLDKRSLPALTNIIKILRHDIGATVHELSRDKKKDTVPWFPRTIQELDRFANQILSYGAELDADHPGFKDPVYRARRKQFADIAYNYRHGQPIPRVEYMEEEKKTWGTVFKTLKSLYKTHACYEYNHIFPLLEKYCGFHEDNIPQLEDVSQFLQTCTGFRLRPVAGLLSSRDFLGGLAFRVSHCTQYIRHGSKPMYTPEPDICHELLGHVPLFSDRSFAQFSQEIGLASLGAPDEYIEKLATIYWFTVEFGLCKQGDSIKAYGAGLLSSFGELQYCLSEKPKLLPLELEKTAIQNYTVTEFQPLYYVAESFNDAKEKVRNFAATIPRPFSVRYDPYTQRIEVLDNTQQLKILADSINSEIGILCSALQKIK |  | 27.1 | 13.6 | 11 | 
5 | human phenylalanine hydroxylase variant p.Gly239Ala, fusion with maltose-binding protein (enzyme, UniProt P00439 1-452, looked up, phenylalanine hydroxylase (PAH), human, missense variant from Czech PKU/HPA patients, made by site-directed mutagenesis of pMAL-PAH; Same construct as m1 with one substitution; also called c.716G>C) MSTAVLENPGLGRKLSDFGQETSYIEDNCNQNGAISLIFSLKEEVGALAKVLRLFEENDVNLTHIESRPSRLKKDEYEFFTHLDKRSLPALTNIIKILRHDIGATVHELSRDKKKDTVPWFPRTIQELDRFANQILSYGAELDADHPGFKDPVYRARRKQFADIAYNYRHGQPIPRVEYMEEEKKTWGTVFKTLKSLYKTHACYEYNHIFPLLEKYCGFHEDNIPQLEDVSQFLQTCTAFRLRPVAGLLSSRDFLGGLAFRVFHCTQYIRHGSKPMYTPEPDICHELLGHVPLFSDRSFAQFSQEIGLASLGAPDEYIEKLATIYWFTVEFGLCKQGDSIKAYGAGLLSSFGELQYCLSEKPKLLPLELEKTAIQNYTVTEFQPLYYVAESFNDAKEKVRNFAATIPRPFSVRYDPYTQRIEVLDNTQQLKILADSINSEIGILCSALQKIK |  | 32.8 | 14 | 5.5 | 
6 | human phenylalanine hydroxylase variant p.Ile406Met, fusion with maltose-binding protein (enzyme, UniProt P00439 1-452, looked up, phenylalanine hydroxylase (PAH), human, missense variant from Czech PKU/HPA patients, made by site-directed mutagenesis of pMAL-PAH; Same construct as m1 with one substitution; also called c.1218A>G) MSTAVLENPGLGRKLSDFGQETSYIEDNCNQNGAISLIFSLKEEVGALAKVLRLFEENDVNLTHIESRPSRLKKDEYEFFTHLDKRSLPALTNIIKILRHDIGATVHELSRDKKKDTVPWFPRTIQELDRFANQILSYGAELDADHPGFKDPVYRARRKQFADIAYNYRHGQPIPRVEYMEEEKKTWGTVFKTLKSLYKTHACYEYNHIFPLLEKYCGFHEDNIPQLEDVSQFLQTCTGFRLRPVAGLLSSRDFLGGLAFRVFHCTQYIRHGSKPMYTPEPDICHELLGHVPLFSDRSFAQFSQEIGLASLGAPDEYIEKLATIYWFTVEFGLCKQGDSIKAYGAGLLSSFGELQYCLSEKPKLLPLELEKTAIQNYTVTEFQPLYYVAESFNDAKEKVRNFAATMPRPFSVRYDPYTQRIEVLDNTQQLKILADSINSEIGILCSALQKIK |  | 15.6 | 6.9 | 37.7 | 34.2
7 | human phenylalanine hydroxylase variant p.Thr200Asn, fusion with maltose-binding protein (enzyme, UniProt P00439 1-452, looked up, phenylalanine hydroxylase (PAH), human, missense variant from Czech PKU/HPA patients, made by site-directed mutagenesis of pMAL-PAH; Same construct as m1 with one substitution; also called c.599C>A) MSTAVLENPGLGRKLSDFGQETSYIEDNCNQNGAISLIFSLKEEVGALAKVLRLFEENDVNLTHIESRPSRLKKDEYEFFTHLDKRSLPALTNIIKILRHDIGATVHELSRDKKKDTVPWFPRTIQELDRFANQILSYGAELDADHPGFKDPVYRARRKQFADIAYNYRHGQPIPRVEYMEEEKKTWGTVFKTLKSLYKNHACYEYNHIFPLLEKYCGFHEDNIPQLEDVSQFLQTCTGFRLRPVAGLLSSRDFLGGLAFRVFHCTQYIRHGSKPMYTPEPDICHELLGHVPLFSDRSFAQFSQEIGLASLGAPDEYIEKLATIYWFTVEFGLCKQGDSIKAYGAGLLSSFGELQYCLSEKPKLLPLELEKTAIQNYTVTEFQPLYYVAESFNDAKEKVRNFAATIPRPFSVRYDPYTQRIEVLDNTQQLKILADSINSEIGILCSALQKIK |  | 10.5 | 4.5 | 43.8 | 40.5
8 | human phenylalanine hydroxylase variant p.Ala342Pro, fusion with maltose-binding protein (enzyme, UniProt P00439 1-452, looked up, phenylalanine hydroxylase (PAH), human, missense variant from Czech PKU/HPA patients, made by site-directed mutagenesis of pMAL-PAH; Same construct as m1 with one substitution; also called c.1024G>C) MSTAVLENPGLGRKLSDFGQETSYIEDNCNQNGAISLIFSLKEEVGALAKVLRLFEENDVNLTHIESRPSRLKKDEYEFFTHLDKRSLPALTNIIKILRHDIGATVHELSRDKKKDTVPWFPRTIQELDRFANQILSYGAELDADHPGFKDPVYRARRKQFADIAYNYRHGQPIPRVEYMEEEKKTWGTVFKTLKSLYKTHACYEYNHIFPLLEKYCGFHEDNIPQLEDVSQFLQTCTGFRLRPVAGLLSSRDFLGGLAFRVFHCTQYIRHGSKPMYTPEPDICHELLGHVPLFSDRSFAQFSQEIGLASLGAPDEYIEKLATIYWFTVEFGLCKQGDSIKPYGAGLLSSFGELQYCLSEKPKLLPLELEKTAIQNYTVTEFQPLYYVAESFNDAKEKVRNFAATIPRPFSVRYDPYTQRIEVLDNTQQLKILADSINSEIGILCSALQKIK |  | 22 | 15.5 | 3.8 | 
